# Measurements from US20200115430A1 (I2O THERAPEUTICS, published 2020).
# Starred links: 1 amine or outer side, 2 acyl side, 3 side chain; linkers in the order of their positions; H or OH if unused. Positions of bridges follow the written chain, without caps; N, C: chain ends. Non-standard residues stand in square brackets, D forms with d. Groups on a side chain read outwards from the residue. Primed or numbered codes have the meaning given here. No end group written: not given here. *: point of attachment. dpeg″ = —[CO(CH2)O(CH2)2O(CH2)NH]— spacer unit, O=C(COCCOCN[*:1])[*:2]; C20 diacid = O=C(O)CCCCCCCCCCCCCCCCCCC(=O)*; C18 diacid = O=C(O)CCCCCCCCCCCCCCCCC(=O)*; γGlu = O=C(O)[C@H](CCC(=O)[*:2])N[*:1]; Stearoyl = CCCCCCCCCCCCCCCCCC(=O)*; Palmitoyl = CCCCCCCCCCCCCCCC(=O)*
# T1: human amylin 3 receptor (human, UniProt P30988 25-474; O60896 24-148)
# T1 sequence (looked up) 1: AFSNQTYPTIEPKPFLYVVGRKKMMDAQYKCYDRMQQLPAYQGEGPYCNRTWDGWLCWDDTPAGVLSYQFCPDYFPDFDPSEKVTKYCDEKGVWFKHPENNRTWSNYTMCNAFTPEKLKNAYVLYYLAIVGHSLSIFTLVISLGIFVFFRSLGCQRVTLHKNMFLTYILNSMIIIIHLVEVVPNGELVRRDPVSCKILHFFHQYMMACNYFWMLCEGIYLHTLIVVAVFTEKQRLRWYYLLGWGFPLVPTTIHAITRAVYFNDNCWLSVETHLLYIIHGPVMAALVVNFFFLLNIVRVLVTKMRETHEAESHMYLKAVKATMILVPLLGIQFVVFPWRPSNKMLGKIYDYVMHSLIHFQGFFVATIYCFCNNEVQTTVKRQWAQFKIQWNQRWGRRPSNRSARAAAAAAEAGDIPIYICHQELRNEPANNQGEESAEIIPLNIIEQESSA
# T1 sequence (looked up) 2: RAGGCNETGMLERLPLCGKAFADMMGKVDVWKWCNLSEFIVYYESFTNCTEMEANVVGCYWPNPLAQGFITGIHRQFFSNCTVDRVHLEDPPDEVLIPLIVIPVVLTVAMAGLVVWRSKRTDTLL
# T2: human calcitonin receptor (human, UniProt P30988 25-474)
# T2 sequence (looked up): T1 sequence (looked up) 1
# B1: Compound A27 (peptide)
# peptide: SCNTSTCATQRLANE[dK]([γGlu-γGlu-Palmitoyl])HKSSNNFGPILPPTKVGSETY-NH2
# modifications: disulfide 2-7; N-terminus assumed
# SMILES: CCCCCCCCCCCCCCCC(=O)N[C@@H](CCC(=O)N[C@@H](CCC(=O)NCCCC[C@@H](NC(=O)[C@H](CCC(=O)O)NC(=O)[C@H](CC(N)=O)NC(=O)[C@H](C)NC(=O)[C@H](CC(C)C)NC(=O)[C@H](CCCNC(=N)N)NC(=O)[C@H](CCC(N)=O)NC(=O)[C@@H](NC(=O)[C@H](C)NC(=O)[C@@H]1CSSC[C@H](NC(=O)[C@@H](N)CO)C(=O)N[C@@H](CC(N)=O)C(=O)N[C@@H]([C@@H](C)O)C(=O)N[C@@H](CO)C(=O)N[C@@H]([C@@H](C)O)C(=O)N1)[C@@H](C)O)C(=O)N[C@@H](Cc1c[nH]cn1)C(=O)N[C@@H](CCCCN)C(=O)N[C@@H](CO)C(=O)N[C@@H](CO)C(=O)N[C@@H](CC(N)=O)C(=O)N[C@@H](CC(N)=O)C(=O)N[C@@H](Cc1ccccc1)C(=O)NCC(=O)N1CCC[C@H]1C(=O)N[C@H](C(=O)N[C@@H](CC(C)C)C(=O)N1CCC[C@H]1C(=O)N1CCC[C@H]1C(=O)N[C@H](C(=O)N[C@@H](CCCCN)C(=O)N[C@H](C(=O)NCC(=O)N[C@@H](CO)C(=O)N[C@@H](CCC(=O)O)C(=O)N[C@H](C(=O)N[C@@H](Cc1ccc(O)cc1)C(N)=O)[C@@H](C)O)C(C)C)[C@@H](C)O)[C@@H](C)CC)C(=O)O)C(=O)O
# B2: Compound A115 (peptide)
# peptide: K(C20 diacid)CNTSTCATQRLANELHKSSNNFGPILPPTKVGSETY-NH2
# modifications: disulfide 2-7; N-terminus assumed
# SMILES: CC[C@H](C)[C@H](NC(=O)[C@@H]1CCCN1C(=O)CNC(=O)[C@H](Cc1ccccc1)NC(=O)[C@H](CC(N)=O)NC(=O)[C@H](CC(N)=O)NC(=O)[C@H](CO)NC(=O)[C@H](CO)NC(=O)[C@H](CCCCN)NC(=O)[C@H](Cc1c[nH]cn1)NC(=O)[C@H](CC(C)C)NC(=O)[C@H](CCC(=O)O)NC(=O)[C@H](CC(N)=O)NC(=O)[C@H](C)NC(=O)[C@H](CC(C)C)NC(=O)[C@H](CCCNC(=N)N)NC(=O)[C@H](CCC(N)=O)NC(=O)[C@@H](NC(=O)[C@H](C)NC(=O)[C@@H]1CSSC[C@H](NC(=O)[C@@H](N)CCCCNC(=O)CCCCCCCCCCCCCCCCCCC(=O)O)C(=O)N[C@@H](CC(N)=O)C(=O)N[C@@H]([C@@H](C)O)C(=O)N[C@@H](CO)C(=O)N[C@@H]([C@@H](C)O)C(=O)N1)[C@@H](C)O)C(=O)N[C@@H](CC(C)C)C(=O)N1CCC[C@H]1C(=O)N1CCC[C@H]1C(=O)N[C@H](C(=O)N[C@@H](CCCCN)C(=O)N[C@H](C(=O)NCC(=O)N[C@@H](CO)C(=O)N[C@@H](CCC(=O)O)C(=O)N[C@H](C(=O)N[C@@H](Cc1ccc(O)cc1)C(N)=O)[C@@H](C)O)C(C)C)[C@@H](C)O
# B3: Compound A13 (peptide)
# peptide: SCNTSTCATQRLANE[dK]([γGlu-γGlu-γGlu-Stearoyl])HKSSNNFGPILPPTKVGSETY-NH2
# modifications: disulfide 2-7; N-terminus assumed
# SMILES: CCCCCCCCCCCCCCCCCC(=O)N[C@@H](CCC(=O)N[C@@H](CCC(=O)N[C@@H](CCC(=O)NCCCC[C@@H](NC(=O)[C@H](CCC(=O)O)NC(=O)[C@H](CC(N)=O)NC(=O)[C@H](C)NC(=O)[C@H](CC(C)C)NC(=O)[C@H](CCCNC(=N)N)NC(=O)[C@H](CCC(N)=O)NC(=O)[C@@H](NC(=O)[C@H](C)NC(=O)[C@@H]1CSSC[C@H](NC(=O)[C@@H](N)CO)C(=O)N[C@@H](CC(N)=O)C(=O)N[C@@H]([C@@H](C)O)C(=O)N[C@@H](CO)C(=O)N[C@@H]([C@@H](C)O)C(=O)N1)[C@@H](C)O)C(=O)N[C@@H](Cc1c[nH]cn1)C(=O)N[C@@H](CCCCN)C(=O)N[C@@H](CO)C(=O)N[C@@H](CO)C(=O)N[C@@H](CC(N)=O)C(=O)N[C@@H](CC(N)=O)C(=O)N[C@@H](Cc1ccccc1)C(=O)NCC(=O)N1CCC[C@H]1C(=O)N[C@H](C(=O)N[C@@H](CC(C)C)C(=O)N1CCC[C@H]1C(=O)N1CCC[C@H]1C(=O)N[C@H](C(=O)N[C@@H](CCCCN)C(=O)N[C@H](C(=O)NCC(=O)N[C@@H](CO)C(=O)N[C@@H](CCC(=O)O)C(=O)N[C@H](C(=O)N[C@@H](Cc1ccc(O)cc1)C(N)=O)[C@@H](C)O)C(C)C)[C@@H](C)O)[C@@H](C)CC)C(=O)O)C(=O)O)C(=O)O
# B4: Compound A119 (peptide)
# peptide: K([γGlu-C20 diacid])CNTSTCATQRLANELHKSSNNFGPILPPTKVGSETY-NH2
# modifications: disulfide 2-7; N-terminus assumed
# SMILES: CC[C@H](C)[C@H](NC(=O)[C@@H]1CCCN1C(=O)CNC(=O)[C@H](Cc1ccccc1)NC(=O)[C@H](CC(N)=O)NC(=O)[C@H](CC(N)=O)NC(=O)[C@H](CO)NC(=O)[C@H](CO)NC(=O)[C@H](CCCCN)NC(=O)[C@H](Cc1c[nH]cn1)NC(=O)[C@H](CC(C)C)NC(=O)[C@H](CCC(=O)O)NC(=O)[C@H](CC(N)=O)NC(=O)[C@H](C)NC(=O)[C@H](CC(C)C)NC(=O)[C@H](CCCNC(=N)N)NC(=O)[C@H](CCC(N)=O)NC(=O)[C@@H](NC(=O)[C@H](C)NC(=O)[C@@H]1CSSC[C@H](NC(=O)[C@@H](N)CCCCNC(=O)CC[C@H](NC(=O)CCCCCCCCCCCCCCCCCCC(=O)O)C(=O)O)C(=O)N[C@@H](CC(N)=O)C(=O)N[C@@H]([C@@H](C)O)C(=O)N[C@@H](CO)C(=O)N[C@@H]([C@@H](C)O)C(=O)N1)[C@@H](C)O)C(=O)N[C@@H](CC(C)C)C(=O)N1CCC[C@H]1C(=O)N1CCC[C@H]1C(=O)N[C@H](C(=O)N[C@@H](CCCCN)C(=O)N[C@H](C(=O)NCC(=O)N[C@@H](CO)C(=O)N[C@@H](CCC(=O)O)C(=O)N[C@H](C(=O)N[C@@H](Cc1ccc(O)cc1)C(N)=O)[C@@H](C)O)C(C)C)[C@@H](C)O
# B5: Compound A113 (peptide)
# peptide: K([dpeg″-dpeg″-γGlu-C18 diacid])CNTSTCATQRLANELHKSSNNFGPILPPTKVGSETY-NH2
# modifications: disulfide 2-7
# B6: Compound A99 (peptide)
# peptide: SCNTSTCATQRLANELK([dpeg″-dpeg″-γGlu-C18 diacid])KSSNNFGPILPPTKVGSETY-NH2
# modifications: disulfide 2-7; N-terminus assumed
# SMILES: CC[C@H](C)[C@H](NC(=O)[C@@H]1CCCN1C(=O)CNC(=O)[C@H](Cc1ccccc1)NC(=O)[C@H](CC(N)=O)NC(=O)[C@H](CC(N)=O)NC(=O)[C@H](CO)NC(=O)[C@H](CO)NC(=O)[C@H](CCCCN)NC(=O)[C@H](CCCCNC(=O)COCCOCNC(=O)COCCOCNC(=O)CC[C@H](NC(=O)CCCCCCCCCCCCCCCCC(=O)O)C(=O)O)NC(=O)[C@H](CC(C)C)NC(=O)[C@H](CCC(=O)O)NC(=O)[C@H](CC(N)=O)NC(=O)[C@H](C)NC(=O)[C@H](CC(C)C)NC(=O)[C@H](CCCNC(=N)N)NC(=O)[C@H](CCC(N)=O)NC(=O)[C@@H](NC(=O)[C@H](C)NC(=O)[C@@H]1CSSC[C@H](NC(=O)[C@@H](N)CO)C(=O)N[C@@H](CC(N)=O)C(=O)N[C@@H]([C@@H](C)O)C(=O)N[C@@H](CO)C(=O)N[C@@H]([C@@H](C)O)C(=O)N1)[C@@H](C)O)C(=O)N[C@@H](CC(C)C)C(=O)N1CCC[C@H]1C(=O)N1CCC[C@H]1C(=O)N[C@H](C(=O)N[C@@H](CCCCN)C(=O)N[C@H](C(=O)NCC(=O)N[C@@H](CO)C(=O)N[C@@H](CCC(=O)O)C(=O)N[C@H](C(=O)N[C@@H](Cc1ccc(O)cc1)C(N)=O)[C@@H](C)O)C(C)C)[C@@H](C)O
# Target: T1, human amylin 3 receptor
# Assay: cell-based or functional assay
Binder,"pEC50 (cAMP accumulation), 0% HSA","pEC50 (cAMP accumulation), 0.1% HSA","pEC50 (cAMP accumulation), 4% HSA"
B1,12.8 pEC50,11.8 pEC50,10.4 pEC50
B2,12.3 pEC50,10.7 pEC50,9.4 pEC50
B3,12.4 pEC50,11.4 pEC50,10.1 pEC50
B4,11.9 pEC50,10.2 pEC50,8.5 pEC50
B5,12.3 pEC50,10.6 pEC50,9 pEC50
B6,10.9 pEC50,9.5 pEC50,8.6 pEC50

# Target: T2, human calcitonin receptor
# Assay: cell-based or functional assay
Binder,"pEC50 (cAMP accumulation), 0% HSA","pEC50 (cAMP accumulation), 0.1% HSA","pEC50 (cAMP accumulation), 4% HSA"
B1,11.9 pEC50,10.6 pEC50,9 pEC50
B2,11.5 pEC50,9.9 pEC50,8.5 pEC50
B3,11.6 pEC50,10.3 pEC50,8.5 pEC50
B4,11.2 pEC50,9.5 pEC50,7.9 pEC50
B5,11.3 pEC50,9.7 pEC50,8.1 pEC50
B6,10.4 pEC50,8.5 pEC50,7.6 pEC50
